{
  "source": "patent US5811267",
  "key": {"[1]": {"molecular_target": "P-glycoprotein (product of the human MDR1 gene) (human) (UniProt P08183)", "test": "indirect immunofluorescence on drug-resistant cell lines against drug-sensitive parental KB-3-1 cells"}, "[2]": {"molecular_target": "P-glycoprotein (product of the human MDR1 gene) (human) (UniProt P08183)", "test": "solid phase whole-cell ELISA, hybridoma supernatant on fixed BATV.2 cells (human MDR1 transfected 3T3) against parent BA3T3 cells"}},
  "data": [
    {"substance": "monoclonal antibody produced by the hybridoma cell line 15D3 (ATCC No. HB11342)", "values": [
      {"measurement": "fold reaction on resistant cell lines over KB-3-1 cells", "setting": "[1]", "value": "> 2", "unit": "fold"},
      {"measurement": "fold reaction on BATV.2 cells over parent BA3T3 cells", "setting": "[2]", "value": "> 2", "unit": "fold"}
    ]}
  ]
}
